Results: patent US20180015152

Columns and labels:
[1] = biological target: T1, sirtuin 1 (human Sirt1, endogenous in human aortic endothelial cells), Q96EB6
T1 chain: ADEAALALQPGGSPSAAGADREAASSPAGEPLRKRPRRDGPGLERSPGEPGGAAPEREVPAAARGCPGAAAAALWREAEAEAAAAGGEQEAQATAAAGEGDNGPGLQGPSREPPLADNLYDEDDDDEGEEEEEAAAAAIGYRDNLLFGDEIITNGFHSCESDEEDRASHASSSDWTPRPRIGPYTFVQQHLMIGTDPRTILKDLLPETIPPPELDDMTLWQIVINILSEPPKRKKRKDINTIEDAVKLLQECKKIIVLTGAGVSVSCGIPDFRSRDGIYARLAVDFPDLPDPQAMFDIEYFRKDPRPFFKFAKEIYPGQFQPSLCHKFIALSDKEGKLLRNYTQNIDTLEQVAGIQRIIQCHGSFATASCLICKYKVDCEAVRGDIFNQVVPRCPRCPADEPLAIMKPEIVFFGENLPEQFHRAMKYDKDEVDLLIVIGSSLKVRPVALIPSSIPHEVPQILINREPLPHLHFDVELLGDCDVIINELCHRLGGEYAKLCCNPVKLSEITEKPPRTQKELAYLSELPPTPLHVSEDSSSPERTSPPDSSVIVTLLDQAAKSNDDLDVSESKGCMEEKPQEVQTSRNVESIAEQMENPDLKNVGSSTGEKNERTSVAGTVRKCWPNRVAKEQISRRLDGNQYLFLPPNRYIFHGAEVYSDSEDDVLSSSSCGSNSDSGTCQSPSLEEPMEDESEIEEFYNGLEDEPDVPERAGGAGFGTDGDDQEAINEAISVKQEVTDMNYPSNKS

[2] = biological target: T2, cell permeable human non-Casp1 cleavable Sirt1 polypeptide (NC-Sirt1)
T2 chain: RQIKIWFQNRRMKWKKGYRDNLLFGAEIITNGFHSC

B1: caspase-1 (human, endogenous in human aortic endothelial cells) (protein)
chain: NPAMPTSSGSEGNVKLCSLEEAQRIWKQKSAEIYPIMDKSSRTRLALIICNEEFDSIPRRTGAEVDITGMTMLLQNLGYSVDVKKNLTASDMTTELEAFAHRPEHKTSDSTFLVFMSHGIREGICGKKHSEQVPDILQLNAIFNMLNTKNCPSLKDKPKVIIIQACRGDSPGVVWFKDSVGVSGNLSLPTTEEFEDDAIKKAHIEKDFIAFCSSTPDNVSWRHPTMGSVFIGRLIEHMQEYACSCDVEEIFRKVRFSFEQPDGRAQMPTTERVTLTRCFYLFPGH
- cleaved-Sirt1 expression by Western blot in HAECs treated with oxLDL [1]: oxLDL induced the expression of cleaved-Sirt1 by 2.4-folds in HAECs
- cleaved-Sirt1 expression by Western blot with anti-Sirt1 antibody in oxLDL-treated HAECs [2]: NC-Sirt1 dose-dependently decreases the cleavage of Sirt1 induced by oxLDL
